Test results: publication PMC7532188

Molecular target: His-tagged TASOR(354–633), tandem SPOC-DomI construct (human) (UniProt Q9UK61)
Test: SEC-MALS; complex co-expressed in E. coli and purified by Ni-affinity; Superdex 200 (10/300), 293 K, 20 mM HEPES pH 7.5, 0.5 M NaCl, 0.5 mM TCEP

Chain of UniProt Q9UK61 (Q9UK61 354-633): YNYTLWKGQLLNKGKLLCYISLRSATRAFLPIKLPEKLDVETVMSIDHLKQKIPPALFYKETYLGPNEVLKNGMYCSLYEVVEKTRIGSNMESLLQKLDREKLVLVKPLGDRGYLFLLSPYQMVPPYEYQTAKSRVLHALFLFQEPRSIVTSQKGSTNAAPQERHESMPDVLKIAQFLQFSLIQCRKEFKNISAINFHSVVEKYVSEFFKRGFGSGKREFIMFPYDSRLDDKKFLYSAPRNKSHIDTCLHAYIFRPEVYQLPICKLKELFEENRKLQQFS

Substance: MPP8 C-terminus (residues 528–860) (from UniProt Q99549-1 528-860) (domain or fragment)
- stoichiometry N: 1
